Test results as given in the supplement of paper PMC9170038.

Test system: MS2 coat protein
Assay: apparent KD of MS2 coat protein; designed switch direction (-1 OFF switch, 1 ON switch): -1; higher = weaker reporter binding
Method in brief: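 Three titration conditions were used: no input, 200 uM small-molecule ligand, and an oligonucleotide input. In each, SNAP-549-labelled MS2 coat protein was raised from 0.7 or 1.5 nM, doubling, to 3 µM over designed RNA switches transcribed on Illumina chips by stalled E. coli RNA polymerase. Curve fits of normalised cluster fluorescence gave values whose per-design median over clusters is the apparent KD.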

[1] = input ligand: microRNA oligo, concentration not stated
[2] = Eterna round: R95, input ligand: FMN 200 uM
[3] = Eterna round: R95, input ligand: microRNA oligo, concentration not stated
[4] = Eterna round: R95, input ligand: none

Sequence	apparent KD of MS2 coat protein (input ligand: FMN 200 uM) [nM]	apparent KD of MS2 coat protein (input ligand: none) [nM]	apparent KD of MS2 coat protein [3] [nM]	also measured
GCACGGGUGGUAGGAUAUCCUUGCGAUUAGCAAGGAGAAGGACCACAUGAGGAUCACCCAUGUACCUCAAUUAUCCUUCCGUGC [Eli exng1 - 024] (Eterna round: R96, puzzle: Exclusion NG 1)	16.8	14.5		apparent KD of MS2 coat protein [1]: 10.4 nM
GUGUAACUACACGGGCUCAACAUGAGGAUCACCCAUGUCAUACACGCAAGCUUUUUGCUUGUCUUAUCUGUCCGUGA [Raenzama] (puzzle: Sensor v3, turn-off variant 1)			13.5	apparent KD of MS2 coat protein [2]: 12.1 nM; apparent KD of MS2 coat protein [4]: 10.4 nM
GCCGGAGCAGGAUAUCUAAUAUAUCACAUGAGGAUCACCCAUGUCCAGCGAAAGCUGGAGGGAGAAGGGCUCUGGC [Fiskers Ex 5 - 22] (puzzle: Exclusion 5)			133	apparent KD of MS2 coat protein [2]: 59.7 nM; apparent KD of MS2 coat protein [4]: 132 nM
UGUUUACAUGAGGAUCACCCAUGUCAGGAUAUGAUCGAUAUAUGGAAACAUAUAUCGAUCAGAAGGGACUAGUG [Jieuxxlusion 2 - Jieux - Exclusion 1] (Eterna round: R97, puzzle: Exclusion 1)	88.2	82.6		
CAGUACUGAGGAUAUACAUGAGGAUCACCCAUGUGUGUGAGAUUUGGAUGAAAGUUAUGUAGAAGGCGGUGCUG [JR_Ex3_Sub037] (Eterna round: R97, puzzle: Exclusion 3)	68.4	73.8		
CUUUUGUGAGGAUAUUCGUAGUAAAUGAAUAAAAUUAUUACGGAGAAGGCACAUGAGGAUCACCCAUGUUCCUU [Mat - Exclusion 4 - Eli Mod - D32] (Eterna round: R97, puzzle: Exclusion 4)	53.2	16.7		
CAUGUGUGAGGAUAUCCUAGACUAAUGGAGACGCUACCGUGGGAGAAGGUACAUGAGGAUCACCCAUGUGGACC [Eternabot (L1) Solution 88] (Eterna round: R97, puzzle: Exclusion 4)	32.7	32.2		
AUCUGCACGCUGCGGUCCUACAUGAGGAUCACCCAUGUGGUCUGGUGGCGUGGGUCGCCGGACUUGGCUCGUCUUGA [salish99_S_TOV1_R5_043] (Eterna round: R97, puzzle: Sensor, turn-off variant 1)	18.1	18.1		
UACGAGUCAGGAUAUUGGGCAAUAGCAUUACGGAACGAUCACAAGAAGGGACAUGAGGAUCACCCAUGUUAUAU [Candy Rainbow 3] (puzzle: Exclusion 4)			22.3	
GGAUAUAACGUAGGAUAUCUGAGAAAUAGAUGAAGAGAAGGACGACAUGAGGAUCACCCAUGUGAUCUAUCAAUAUUAUACAUG [Prohibition 100 - Jieux - Exclusion NG 1] (Eterna round: R96, puzzle: Exclusion NG 1)				apparent KD of MS2 coat protein [1]: 332 nM
UUCUUUAUACGAGGAUAUCAUACAUGAGGAUCACCCAUGUAACUGGGUCUAUUUUUAUAUAAUAUUGAGAAGGCGUUUUGCUAU [JR_ExcNG2_Sub071] (Eterna round: R96, puzzle: Exclusion NG 2)	52.6	36.8		apparent KD of MS2 coat protein [1]: 31.1 nM
UUUUUACAUGAGGAUCACCCAUGUCAGGAUAUGUUUAUAUUUUAUUAUUUUAUUUUUUACAGAAGGGACUAUUA [My solution] (puzzle: Exclusion 1)			123	
UUAUAAAGUGUGAGGAUAUGCUGGUCGAUAGAUCAGCAGAAGGCACAUGAGGAUCACCCAUGUAAUAUAUUUUA [Mat - Exclusion 4 - JL Mod - D45] (puzzle: Brourd's mod of Exclusion 4)			50	
CGCCCUGACGAAGGAUAUUAAGCUCAUACAUGAGGAUCACCCAUGUCCAUAGUAGUGUAUGCACCUGAGAAGGUCGUCAGCGCU [Eternabot solution 50] (Eterna round: R96, puzzle: Exclusion NG 2)	213	257		apparent KD of MS2 coat protein [1]: 240 nM
UUUAAUUUUUUUUUUUUACAAGCUUUUUGCUCGUCUUAUACAUGAGGAUCACCCAUGUAGAUGGGAGAUAAAUUAUC [JMF 20] (puzzle: Sensor v3, turn-off variant 2)			85.3	apparent KD of MS2 coat protein [2]: 33.8 nM; apparent KD of MS2 coat protein [4]: 40.5 nM
GCCGGCUGAGGAUAUACAUGAGGAUCACCCAUGUGCUUCAGCCGGGAGACCGGCAUUGGUAGAAGGCAGCCGGC [Mod of lroppy 21 - Jieux - Exclusion 3] (Eterna round: R97, puzzle: Exclusion 3)	14.5	14.7		
AACAGUAGAGGAUAUACAUGAGGAUCACCCAUGUGAUAUUUACGUGGCGUACCACGAAGUAGAAGGCUACUGGA [JL Maslow Revisted mod 14] (Eterna round: R96, puzzle: Exclusion 3)	512	34.9		apparent KD of MS2 coat protein [1]: 32.5 nM
AUUAUGUUAGGAUAUGCUUAUGGUGGAUAGUCCAGUAUGGUGUAGAAGGGACAUGAGGAUCACCCAUGUGCUGA [EX4 #33] (Eterna round: R97, puzzle: Exclusion 4)	35.2	34		

Sequence	apparent KD of MS2 coat protein (input ligand: FMN 200 uM) [nM]	apparent KD of MS2 coat protein (input ligand: none) [nM]	apparent KD of MS2 coat protein [3] [nM]	also measured
GAGUUAGCGUGAGGAAUAUACAUGAGGAUCACCCAUGUUAGCAAAUAUAUUGCUCGUCUUAUAACAACAAUUAACUC [Alarm 9 - Jieux - Sensor, turn-off variant 1] (Eterna round: R97, puzzle: Sensor, turn-off variant 1)	13.6	14.3		
UAAAAGCUAGGAUAUACAUGAGGAUCACCCAUGUCAACCACACGGAUGCGCCGAGCAUGUAGAAGGAGCACCGG [Soora] (puzzle: Exclusion 3)			17	
AAAUAACAAGCGAGAUCCUACAUGAGGAUCACCCAUGUGCUCGUCUUAUUAAGUACUAUCACGAAAGUGAUAGUACA [Mat - Sensor v3 - turn-off var 1 - Eli Mod - D66] (puzzle: Sensor v3, turn-off variant 1)			239	apparent KD of MS2 coat protein [2]: 18.4 nM; apparent KD of MS2 coat protein [4]: 18.4 nM
CGUCUGUAAGGAUAUGGUUGCAUCAACAUGAGGAUCACCCAUGUUACAUGGGACUAGUGAUUAGAAGGUACGAACG [EX5 #57] (Eterna round: R97, puzzle: Exclusion 5)	58.3	54.2		
UUUUUGUCAGGAUAUGACUAGAUGCACGUUAGUGCAUCUACUUAGAAGGGACAUGAGGAUCACCCAUGUAUUCC [Bring Us a Shrubbery-12] (puzzle: Exclusion 4)			27.3	
ACUUACUGAGGAUAUACAUAGAUUUACAUGAGGAUCACCCAUGUUCCUCUUUGUAUAAAUGUAGAAGGCAGAAGAA [Mat - Exclusion 5 - JL Mod - D58] (Eterna round: R97, puzzle: Exclusion 5)	177	93.6		
GCUGGACAAGGAUAUAUAUGACGUGCUUCGGCACGAAGGUCACAUGAGGAUCACCCAUGUAGAAGGUGUCCAGC [E2/9-C2] (Eterna round: R97, puzzle: Exclusion 2)	342	49.7		
GCCGGAGCAGGAUAUCUAAUAUAUCACAUGAGGAUCACCCAUGUCCAGCGAAAGCUGGAGGGAGAAGGGCUCUGGC [Fiskers Ex 5 - 22] (Eterna round: R96, puzzle: Exclusion 5)	47	143		apparent KD of MS2 coat protein [1]: 99.1 nM
CUGUGAUGAGGAUAUACAUGAGGAUCACCCAUGUGUCCUCUGAUGGGUAGGGACCCUGGUAGAAGGCAUUGAGA [Eternabot (L1) Solution 52] (Eterna round: R97, puzzle: Exclusion 3)	19.2	15.5		
GACUGCAGAGGAUAUACAUGAGGAUCACCCAUGUGAGAUGCCUGACAGGUGUUGCUGAGUAGAAGGCUGCACUG [Onorveer] (puzzle: Exclusion 3)			13.2	
AGUGCGUAUGUGAGGAUAUGCUGGUCCUUGGAUCAGCAGAAGGCACAUGAGGAUCACCCAUGUGGUGUCGUACA [salish99_Bmod_Ex4_006] (puzzle: Brourd's mod of Exclusion 4)			320	
AAUUAUUGAUGAGGAUAUUGUGGUGAAACACCACAAGAAGGCAUUAUACACAUGAGGAUCACCCAUGUGAGCCUGAUGCAUAUA [Ex NG1 #56] (Eterna round: R96, puzzle: Exclusion NG 1)				apparent KD of MS2 coat protein [1]: 13.2 nM
CUUUUGUGAGGAUAUCAGUAGUAAAUAAAUAAAAUUACUACUGAGAAGGCACAUGAGGAUCACCCAUGUUCCUU [salish99_ex3_r3_089] (puzzle: Exclusion 4)			15.3	
GGCAUCGGAGGAUAUACUAAUGGUGAUGCCCGAAGCUUUCUACUUGAGGAUCACCCAAGUAGAAGGCCGAUGCC [jl-ex2.4.80 ViennaUCT mod] (Eterna round: R97, puzzle: Exclusion 2)	11	13.1		
AAAUCCGCUGAGGAUAUUAUGACUGAGAGGUCAUGAGAAGGCGGUACAUGAGGAUCACCCAUGUCUAUGGGCAA [Ex-6 Malc#27] (puzzle: Exclusion 6)			292	apparent KD of MS2 coat protein [2]: 377 nM; apparent KD of MS2 coat protein [4]: 553 nM
AAGAACCCGGUAGGAUAUAUUGUGGGCAAACAUGGAACAACAUGAGGAUCACCCAUGUAAUUUAGGUAGAAGGGCCAAAAGAGA [Default title] (Eterna round: R96, puzzle: Exclusion NG 2)	80.1	71.4		apparent KD of MS2 coat protein [1]: 51.6 nM
CCGCCACAUGAGGAUCACCCAUGUCAGGAUAUCUAUCAUAGCAUCGAAAGAUGCGGGUAGAGAAGGGACUAUCC [ChP Ext 10-04-2015 #6] (puzzle: Exclusion 1)			28.1	
